Source: article PMC4703965, “Inhibition of Canonical NF-κB Signaling by a Small Molecule Targeting NEMO-Ubiquitin Interaction” (Scientific Reports, 2016)
Positions count from the first letter of the chain named. Names and notes keep the numbering of the source. One block for each binder: values may come before it.

How the values were obtained:
[1] = biological target: the molecule itself; assay: SEC-MALS; size exclusion chromatography (SEC) in combination with static light scattering (SLS); in solution
[2] = biological target: T1, linear Ub2 (UniProt P0CG48 1-76; P0CG48 1-76); assay: NMR titration; 1H,15N TROSY of 100 μM 15N-labeled NEMO_(UBAN) (258–350) without or with unlabeled linear Ub2 at 2:1 (NEMO_(UBAN):Ub2); conditions: both partners purified
T1 construct: ubiquitin, distal moiety of Met1-linked linear di-ubiquitin (two ubiquitins head to tail on one chain); ubiquitin, proximal moiety of Met1-linked linear di-ubiquitin; also called linUb2; methionine-1-linked linear di-ubiquitin; source: recombinant

[3] = biological target: the molecule itself; assay: SAXS; 293 K; 300 mM NaCl, 50 mM Tris-HCl pH 8.0; NEMO_(UBAN) C347S 2.8–9.9 mg/ml; NEMO_(UBAN) C347S and linear Ub2 mixed 2:1 (3.5–12.9 mg/ml) and 2:2 (4.9–12.1 mg/ml)
[4] = biological target: T1, linear Ub2; assay: MST + ITC; Microscale Thermophoresis and Isothermal Titration Calorimetry of NEMO_(UBAN) C347S with linUb2; conditions not shown; conditions: both partners purified

binding result [2]: binds
B1: NEMO_(UBAN) (258–350) (domain or fragment, UniProt Q9Y6K9 258-350, looked up)
chain: MQLEDLKQQLQQAEEALVAKQEVIDKLKEEAEQHKIVMETVPVLKAQADIYKADFQAERQAREKLAEKKELLQEQLEQLQREYSKLKASCQES
notes: NEMO (IKKγ, NF-κB essential modulator), UBAN / CC2-LZ region, residues 258–350; 15N-labelled for the NMR experiment; The His6 tag was cleavable by 3C or TEV protease; also called NEMO_(258–350); NEMO_(UBAN) WT; source: cloned into pET vectors, recombinant, purified (details in the Supporting Information); not shown: His6, N-terminal, cleaved
stoichiometry N [1]: 2

Kd [4]: 1000 to 2000 nM
B2: NEMO_(UBAN) C347S (258–350) (domain or fragment, UniProt Q9Y6K9 258-350, looked up)
chain: B1 chain with C90S
notes: NEMO (IKKγ), UBAN / CC2-LZ region, residues 258–350 with C347S; Used for SAXS, for MST/ITC and unlabelled in the NMR experiments with 15N-linUb2; also called NEMO_(258–350) C347S; source: cloned into pET vectors, recombinant, purified (details in the Supporting Information); not shown: His6, N-terminal, cleaved
stoichiometry N [3]: 2
